Results taken from PMC3377668, “Detection of Crosslinks within and between Proteins by LC-MALDI-TOFTOF and the Software FINDX to Reduce the MSMS-Data to Acquire for Validation” (PLoS ONE, 2012).

Target: T1, Clp-protease subunit R (ClpR) from Synechococcus sp. (Synechococcus sp., UniProt Q9L4P4 1-228)
T1 construct: ClpR, Clp-protease subunit R, Synechococcus sp., UniProtKB Q9L4P4; Stood in the crosslinked ClpCP3R complex; also called R-subunit; source: part of the Synechococcus ClpCP3R complex, obtained as described previously according to [20]
T1 sequence (looked up): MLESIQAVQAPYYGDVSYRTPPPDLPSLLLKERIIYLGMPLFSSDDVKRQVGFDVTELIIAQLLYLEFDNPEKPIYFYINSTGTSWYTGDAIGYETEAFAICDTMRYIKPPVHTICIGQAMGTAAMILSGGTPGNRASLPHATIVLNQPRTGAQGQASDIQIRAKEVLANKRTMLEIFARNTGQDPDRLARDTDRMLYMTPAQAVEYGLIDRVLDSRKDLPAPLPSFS
Test: cross-linking; Clp-protease multisubunit complex (ClpCP3R) crosslinked with H12/D12 BS3; tryptic digest separated into 192 fractions, LC-MALDI-TOF/TOF, FINDX (7 ppm, intensity parameter 0.22), MSMS validation
Settings: both partners purified

binding result: binds
B1: Clp-protease subunit P3 (ClpP3) from Synechococcus sp. (natural protein, UniProt Q9L4P3 1-199, looked up)
chain: MPIGVPSVPYRLPGSSFERWIDIYNRLAMERIIFLGQEVTDGLANSIVAQLLYLDSEDSSKPIYLYINSPGGSVTAGMAIYDTMQYIKSPVITICLGLAASMGAFLLCAGSKGKRLALPHSRIMIHQPLGGTGRRQASDIEIEAKEILRIKKLLNQIMADRTGQPLEKIEKDTDRDYFMSAEEAREYGLIDQVIAERPV
notes: ClpP3, Clp-protease subunit P, Synechococcus sp., UniProtKB Q9L4P3; Stood in the crosslinked ClpCP3R complex (P3 and R in a proteolytic core of two heptameric rings, ClpC in a hexameric ring); also called P3-subunit; source: part of the Synechococcus ClpCP3R complex, obtained as described previously according to [20]; not shown: His6, C-terminal, kept
